In paper PMC5714945, “A homologue of the Parkinson’s disease-associated protein LRRK2 undergoes a monomer-dimer transition during GTP turnover” (Nature Communications, 2017):
Residue numbers refer to the chain shown, from its start. Names may count otherwise.

Columns and labels:
CtRoc-COR [1] = biological target: T1, CtRoc-COR (Chlorobaculum tepidum, UniProt Q8KC98, S928C, form not given); test: stopped-flow Cy3/Cy5 FRET, monomerization; format: binding; settings: 50 µM or 1 µM GTP, Cy3/Cy5-labelled protein, 25 °C
T1 construct: gene CT1526; Roc-COR domains, residues 412-946, N-terminal His-tag (pProEX), E. coli BL21(DE3); dimer nucleotide-free, about 65 kDa monomer

CtRoc-COR [2] = biological target: T2, CtRoc-COR (Chlorobaculum tepidum, UniProt Q8KC98); test: SEC-SAXS, SEC-MALS, native MS, SV-AUC (oligomeric shift); format: binding; settings: pre-incubated with 1 mM (SAXS, MALS), pH 7.5, 5 mM MgCl2
T2 construct: gene CT1526; Roc-COR domains, residues 412-946, N-terminal His-tag (pProEX), E. coli BL21(DE3); dimer nucleotide-free, about 65 kDa monomer
T2 sequence (Q8KC98 412-946): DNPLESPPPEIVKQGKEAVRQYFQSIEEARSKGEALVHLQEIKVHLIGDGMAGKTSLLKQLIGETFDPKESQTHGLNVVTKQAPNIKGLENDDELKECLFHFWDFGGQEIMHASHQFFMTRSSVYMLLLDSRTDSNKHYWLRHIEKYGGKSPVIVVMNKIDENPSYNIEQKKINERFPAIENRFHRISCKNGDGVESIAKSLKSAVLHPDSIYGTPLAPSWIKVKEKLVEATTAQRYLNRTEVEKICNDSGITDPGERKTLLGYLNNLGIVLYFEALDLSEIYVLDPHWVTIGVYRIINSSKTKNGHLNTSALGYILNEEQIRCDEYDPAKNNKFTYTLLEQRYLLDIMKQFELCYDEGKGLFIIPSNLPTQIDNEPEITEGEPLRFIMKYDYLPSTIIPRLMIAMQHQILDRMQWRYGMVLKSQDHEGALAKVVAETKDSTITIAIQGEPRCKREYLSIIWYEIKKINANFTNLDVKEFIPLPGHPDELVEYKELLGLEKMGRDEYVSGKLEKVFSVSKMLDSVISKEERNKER

CtRoco = biological target: T3, CtRoco (Chlorobaculum tepidum, UniProt Q8KC98); test: SEC-SAXS, SEC-MALS, native MS, AUC, negative-stain EM (oligomeric shift); format: binding; settings: pre-incubated with 1 mM (SAXS, MALS, EM), pH 7.5, 5 mM MgCl2
T3 construct: gene CT1526; full length, residues 1-1102, N-terminal His-tag (pProEX), E. coli BL21(DE3); dimer nucleotide-free, monomer/dimer equilibrium with GppNHp
T3 sequence (Q8KC98 1-1102): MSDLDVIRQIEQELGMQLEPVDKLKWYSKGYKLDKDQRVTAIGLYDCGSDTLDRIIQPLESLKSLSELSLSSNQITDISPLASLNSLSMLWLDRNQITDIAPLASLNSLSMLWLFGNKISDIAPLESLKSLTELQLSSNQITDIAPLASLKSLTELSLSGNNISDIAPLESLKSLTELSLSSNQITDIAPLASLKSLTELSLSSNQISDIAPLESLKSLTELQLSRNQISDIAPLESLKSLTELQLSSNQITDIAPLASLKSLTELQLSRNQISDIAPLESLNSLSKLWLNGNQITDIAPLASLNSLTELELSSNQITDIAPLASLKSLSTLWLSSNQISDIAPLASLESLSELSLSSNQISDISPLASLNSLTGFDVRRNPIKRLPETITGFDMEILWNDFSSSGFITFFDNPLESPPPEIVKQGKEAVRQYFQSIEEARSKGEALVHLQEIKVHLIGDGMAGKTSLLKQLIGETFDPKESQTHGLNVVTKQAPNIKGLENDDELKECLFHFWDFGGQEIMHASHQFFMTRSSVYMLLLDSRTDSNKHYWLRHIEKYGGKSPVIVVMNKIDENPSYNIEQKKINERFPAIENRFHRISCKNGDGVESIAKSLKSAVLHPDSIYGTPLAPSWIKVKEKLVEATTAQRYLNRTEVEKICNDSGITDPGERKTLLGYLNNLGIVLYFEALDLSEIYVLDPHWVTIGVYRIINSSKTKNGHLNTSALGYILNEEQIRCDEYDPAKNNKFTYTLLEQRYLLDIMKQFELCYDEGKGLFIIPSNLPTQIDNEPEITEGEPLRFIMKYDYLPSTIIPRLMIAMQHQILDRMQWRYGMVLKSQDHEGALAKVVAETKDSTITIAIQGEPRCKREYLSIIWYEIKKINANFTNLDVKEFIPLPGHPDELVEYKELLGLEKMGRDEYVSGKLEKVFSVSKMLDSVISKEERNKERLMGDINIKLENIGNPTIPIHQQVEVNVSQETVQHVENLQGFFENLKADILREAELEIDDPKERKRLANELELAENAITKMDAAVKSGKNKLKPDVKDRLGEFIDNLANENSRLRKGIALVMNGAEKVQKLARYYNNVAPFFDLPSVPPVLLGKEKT

[3] = biological target: the molecule itself; test: cell-based or functional assay
[4] = biological target: the molecule itself; test: SEC-MALS; nucleotide-free protein; 10 µl of 8 mg ml^-1 injected on a Bio SEC-3 column; buffer as for SEC-SAXS
[5] = biological target: the molecule itself; test: native MS; GppNHp: pre-incubated with 500 µM, 100 µM in 150 mM ammonium acetate pH 7.5; protein 12.5-16 µM
[6] = biological target: the molecule itself; test: SEC-SAXS; nucleotide-free protein; 50 µl of 8 mg ml^-1 injected on a Bio SEC-3 column; 20 mM Hepes pH 7.5, 150 mM NaCl, 5 mM MgCl2, 5% glycerol, 1 mM DTT; mass from Porod volume
[7] = biological target: the molecule itself; test: AUC; sedimentation equilibrium, with GDP; dimer to monomers; 7.2, 4.5 and 2.7 µM protein; buffer as SV-AUC; SEDPHAT monomer-dimer model; approximate KD
[8] = biological target: the molecule itself; test: AUC; sedimentation equilibrium, with GppNHp; dimer to monomers; 7.2, 4.5 and 2.7 µM protein; buffer as SV-AUC; SEDPHAT monomer-dimer model; approximate KD

T1 sequence (Q8KC98 entry or part of it S928C, form open): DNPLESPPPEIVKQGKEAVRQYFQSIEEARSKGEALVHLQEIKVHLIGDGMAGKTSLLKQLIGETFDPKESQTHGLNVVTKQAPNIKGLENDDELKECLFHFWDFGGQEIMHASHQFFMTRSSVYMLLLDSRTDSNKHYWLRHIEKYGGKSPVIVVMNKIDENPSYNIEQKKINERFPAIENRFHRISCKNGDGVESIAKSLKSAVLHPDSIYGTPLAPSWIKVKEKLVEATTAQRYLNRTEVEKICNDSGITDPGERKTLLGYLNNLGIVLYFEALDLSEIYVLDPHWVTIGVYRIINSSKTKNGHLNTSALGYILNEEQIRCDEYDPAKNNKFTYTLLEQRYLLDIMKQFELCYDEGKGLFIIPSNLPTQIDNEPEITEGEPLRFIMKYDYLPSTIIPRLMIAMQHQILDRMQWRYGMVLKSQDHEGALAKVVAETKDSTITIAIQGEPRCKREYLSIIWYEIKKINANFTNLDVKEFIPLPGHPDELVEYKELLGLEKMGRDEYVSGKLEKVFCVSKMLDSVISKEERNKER

Molecule: Nc1nc2c(ncn2[C@@H]2O[C@H](COP(=O)(O)OP(=O)(O)OP(=O)(O)O)[C@@H](O)[C@H]2O)c(=O)[nH]1 [GTP]
- stopped-flow Cy3/Cy5 FRET, monomerization (CtRoc-COR [1]): a fast decrease in FRET signal is observed upon mixing the protein

Molecule: Nc1nc2c(ncn2[C@@H]2O[C@H](COP(=O)(O)OP(=O)(O)NP(=O)(O)O)[C@@H](O)[C@H]2O)c(=O)[nH]1 [GppNHp]
- SEC-SAXS, SEC-MALS, native MS, SV-AUC (oligomeric shift) (CtRoc-COR [2]): the GTP mimic GppNHp induces monomerization in a concentration dependent manner
- SEC-SAXS, SEC-MALS, native MS, AUC, negative-stain EM (oligomeric shift) (CtRoco): As for CtRoc-COR this indicates that GppNHp induces monomerization

B1: CtRoc-COR L487A mutant (domain or fragment, Chlorobium tepidum, UniProt Q8KC98 412-946, looked up)
chain: T2 sequence (Q8KC98 412-946) with L76A
notes: Roco protein from Chlorobium tepidum, Roc-COR module a.a; 412-946, with L487A (analogue of LRRK2 I1371V); also called L487A CtRoc-COR
- single-turnover GTP hydrolysis rate constant (1 µM protein, 1 µM GTP, GDP formation by reversed-phase HPLC), L487A against wild-type CtRoc-COR [3]: 4 fold decrease
- stoichiometry N [4]: 2

B2: Roc-COR domain construct of the Chlorobium tepidum Roco protein (CtRoc-COR) (domain or fragment, UniProt Q8KC98 412-946, looked up)
chain: T2 sequence (Q8KC98 412-946)
notes: Roco protein from Chlorobium tepidum (CtRoco), central Roc-COR module, a.a; 412-946; The monomer chain is written; also called CtRoc-COR wt; Roc-COR module; source: E. coli BL21 (DE3), purified (Ni-NTA IMAC, EDTA treatment, Superdex S200 SEC)
- monomer/dimer ratio [5]: ~1 monomer/dimer
- stoichiometry N [6]: 2

B3: Roco protein from Chlorobium tepidum (CtRoco), full length (natural protein, UniProt Q8KC98 1-1102, looked up)
chain: T3 sequence (Q8KC98 1-1102)
notes: Roco protein from Chlorobium tepidum (CtRoco), a.a; 1-1102: LRR domain (1-411), Roc-COR module (412-946), C-terminal region (947-1102); also called CtRoco wt; C. tepidum Roco protein; source: E. coli BL21 (DE3), purified (Ni-NTA IMAC, EDTA treatment, Superdex S200 SEC)
- monomer-dimer ratio [5]: 1 monomer/dimer
- Kd [7]: ~2000 nM
- stoichiometry N [6]: 2
- Kd [8]: ~30 µM

B4: CtRoco L487A mutant, full length (natural protein, Chlorobium tepidum, UniProt Q8KC98 1-1102, looked up)
chain: T3 sequence (Q8KC98 1-1102) with L487A
notes: Roco protein from Chlorobium tepidum (CtRoco), a.a; 1-1102, with L487A (analogue of LRRK2 I1371V); also called L487A CtRoco
- stoichiometry N [4]: 2
